This note sets out measurements from paper PMC10754441.

The target in the series is T1, TipR (Caulobacter crescentus NA1000) (UniProt A0A0H3C6G9).
T1 sequence: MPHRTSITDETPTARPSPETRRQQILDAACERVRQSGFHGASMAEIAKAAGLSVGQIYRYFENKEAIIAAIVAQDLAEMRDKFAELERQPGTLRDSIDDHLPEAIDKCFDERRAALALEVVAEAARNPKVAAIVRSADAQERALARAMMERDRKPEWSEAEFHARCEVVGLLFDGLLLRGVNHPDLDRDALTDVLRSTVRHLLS
The experiment in a line: EMSA. The conditions noted are these: EMSA: 40 mM Tris-HCl pH 7.6, 60 mM KCl, 0.1% glycerol, 240 ug calf DNA, 800 ug BSA, 100-200 ng probe, 30 min room temperature; 4% native TBE acrylamide gel. In general terms: In EMSA bound probe runs differently from free probe, usually more slowly.

For the sequence “GGCGGCGAGTCCCACGGTCGTCGCCGCGACCGAGCGTTGGAAATGCATGTTTGACCCCGGGAGGCGAGGGTCGCGCGGGCTCTTACCCTTGACGCGGCCACTATGATGAACGATTTGAGAATGAACGTTCATTCTCATGTGGGCTGGACATAAGAGCTGGAGTGTCGCAAGTCAACCTCCGGCGCCGCGCGTTTGGCTGACCTAACGGAAATGTAATGCCGCACAGGACTTC (double strand) [PacrA]”, the binding entry is reported as “binds”.
